As usually defined, the Kd is the equilibrium constant for the complex coming apart. What is called koff is a measure of how fast the partners let go of each other. In general, kon refers to the second-order rate constant of association.

The values that follow come from PMC6641210 (2019).

Experiment [1] deals with T1, pig FcγRIIIA extracellular domain fragment (pig, UniProt Q28942 20-209).
T1 chain: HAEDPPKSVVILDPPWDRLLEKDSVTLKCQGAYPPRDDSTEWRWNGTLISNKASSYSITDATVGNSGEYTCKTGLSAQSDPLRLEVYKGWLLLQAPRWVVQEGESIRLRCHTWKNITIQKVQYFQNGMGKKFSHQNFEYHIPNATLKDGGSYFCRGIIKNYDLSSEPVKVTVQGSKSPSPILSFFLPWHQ
In words: SPR. (In general: SPR reads the build-up and loss of mass on a sensor chip optically.)

The target in experiment [2] is T2, rabbit FcγRIIIA extracellular domain fragment (rabbit (Oryctolagus cuniculus)).
T2 chain: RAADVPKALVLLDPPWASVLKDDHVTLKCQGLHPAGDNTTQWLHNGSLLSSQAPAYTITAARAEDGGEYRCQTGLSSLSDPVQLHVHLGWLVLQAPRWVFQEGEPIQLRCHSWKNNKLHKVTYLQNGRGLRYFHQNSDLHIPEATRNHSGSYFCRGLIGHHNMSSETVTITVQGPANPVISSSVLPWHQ
In words: SPR.

For experiment [3], the target named is T3, chimeric rabbit IgG: variable regions of human 25G1 on rabbit IgG heavy and rabbit kappa (K2) light chain constant regions (human | rabbit (Oryctolagus cuniculus)). The experiment can be described thus: SPR; Biacore X100, 25°C, HBS-EP+ (0.01 M HEPES pH 7.4, 0.15 M NaCl, 3 mM EDTA, 0.05% P20); antibody (5.3 nM) captured by its kappa light chain on a Protein L Sensor Chip, FcγRIIIA ECD injected 30 s at 30 µl/min; five-point titration in triplicate; kinetic fit, 1:1 Langmuir binding model.

The target of experiment [4] is T4, human IgG1 anti-Tissue Factor antibody 25G1 with a kappa light chain (human). Described as above.
Experiment [5] has as its target ADCC-enhanced human IgG1 (25G1) with the S239D/I332E mutations (human). The experiment can be described thus: SPR; antibody (5.3 nM) captured by its kappa light chain on a Protein L sensor chip, FcγRIIIA ECD injected as analyte; Biacore X100, 25°C, HBS-EP+ (0.01 M HEPES pH 7.4, 0.15 M NaCl, 3 mM EDTA, 0.05% P20); five-point titration in triplicate, 1:1 Langmuir binding model (kinetic).

Experiment [6] deals with human IgG1 antibody with a kappa light chain (human anti-Tissue Factor antibody 25G1) (human). The description is as above.
In experiment [7] the target is rabbit chimera of human IgG1 25G1 (human 25G1 variable regions on rabbit IgG heavy chain and rabbit kappa K2 light chain constant regions) (rabbit (Oryctolagus cuniculus)). The description is as above.
For experiment [8], the target named is biotinylated rabbit IgG (Jackson 011-060-003) (rabbit). In words: SPR; biotinylated rabbit IgG immobilised on a streptavidin Sensor Chip SA, titration of rabbit FcγRIIIA as analyte; steady-state affinity analysis, average of a triplicate.
Experiment [9] has as its target T3, chimeric rabbit IgG: variable regions …. The experiment can be described thus: SPR; Biacore X100, 25°C, HBS-EP+; antibody captured on a Protein L Sensor Chip, five-point titration of FcγRIIIA ECD in triplicate; steady-state affinity model.
The target of experiment [10] is T4, human IgG1 anti-Tissue Factor antibody …. The description is as above.
Experiment [11] concerns the target chimeric pig IgG1: variable regions of human 25G1 on pig IgG1 heavy and pig kappa light chain constant regions (human | pig (Sus scrofa)). In words: SPR; Biacore X100, 25°C, HBS-EP+ (0.01 M HEPES pH 7.4, 0.15 M NaCl, 3 mM EDTA, 0.05% P20); antibody (5.3 nM) captured by its kappa light chain on a Protein L Sensor Chip, FcγRIIIA ECD injected 30 s at 30 µl/min; five-point titration in triplicate; kinetic fit, 1:1 Langmuir binding model.

In experiment [12] the target is chimeric rabbit IgG: variable regions of human 25G1 on rabbit IgG heavy and rabbit kappa (K2) light chain constant regions (human | rabbit (Oryctolagus cuniculus)). The description is as above. The source holds these as a separate data set.
Experiment [13] concerns the target ADCC-enhanced human IgG1 25G1 with S239D/I332E (human). The description is as above.
Experiment [14] addresses human IgG1 anti-Tissue Factor antibody 25G1 with a kappa light chain (human). The experiment is described as above. The source holds these as a separate data set.
In experiment [15] the target is rabbit chimera of human IgG1 25G1 (human 25G1 variable regions on rabbit IgG heavy chain and rabbit kappa K2 light chain constant regions) (rabbit (Oryctolagus cuniculus)). The experiment can be described thus: SPR; antibody (5.3 nM) captured by its kappa light chain on a Protein L sensor chip, FcγRIIIA ECD injected as analyte; Biacore X100, 25°C, HBS-EP+ (0.01 M HEPES pH 7.4, 0.15 M NaCl, 3 mM EDTA, 0.05% P20); five-point titration in triplicate, 1:1 Langmuir binding model (kinetic). The source holds these as a separate data set.

Experiment [16] concerns the target pig chimera of human IgG1 25G1 (human 25G1 variable regions on pig IgG1 heavy chain and pig kappa light chain constant regions) (pig (Sus scrofa)). The experiment is described as above.
The target in experiment [17] is ADCC-enhanced human IgG1 (25G1) with the S239D/I332E mutations (human). Described as above. The source holds these as a separate data set.
In experiment [18] the target is human IgG1 antibody with a kappa light chain (human anti-Tissue Factor antibody 25G1) (human). The experiment is described as above. The source holds these as a separate data set.
For experiment [19], the target named is chimeric pig IgG1: variable regions of human 25G1 on pig IgG1 heavy and pig kappa light chain constant regions (human | pig (Sus scrofa)). In words: SPR; Biacore X100, 25°C, HBS-EP+; antibody captured on a Protein L Sensor Chip, five-point titration of FcγRIIIA ECD in triplicate; steady-state affinity model.
Experiment [20] has as its target chimeric rabbit IgG: variable regions of human 25G1 on rabbit IgG heavy and rabbit kappa (K2) light chain constant regions (human | rabbit (Oryctolagus cuniculus)). Described as above. The source holds these as a separate data set.
In experiment [21] the target is human IgG1 anti-Tissue Factor antibody 25G1 with a kappa light chain (human). The experiment is described as above. This is another data set of the same source.
For experiment [22], the target named is ADCC-enhanced human IgG1 25G1 with S239D/I332E (human). In words: SPR.

Where “and” joins values, the source holds several entries; their conditions need not be identical. Identical values can stand only once. Like-named read-outs stand apart in the source and are kept apart here. Bounds are passed on as bounds.

B1: human IgG1 antibody with a kappa light chain (human anti-Tissue Factor antibody 25G1) (antibody)
chain 1: QVQLVQSGAEVKKPGASVKVSCKASGYTFRSYGISWVRQAPGQGLEWMGWVAPYSGNTNYAQKLQGRVTMTTDTSTSTAYMELRSLRSDDTAVYYCARDAGTYSPYGYGMDVWGQGTTVTVSS
chain 2: DIQMTQSPSTLSASVGDRVTITCRASHSIDSWLAWYQQKPGKAPKLLIYKASYLESGVPSRFSGSGSGTEFTLTISSLQPDDFATYYCQLFQSLPPFTFGGGTKVEIK
As for B1, the dissociation constant (Kd) is 8060 nM and 14700 nM in [1]; 2170 nM and 2710 nM in [2].

B2: rabbit FcγRIIIA extracellular domain fragment (receptor)
chain: T2 chain
modifications: not checked
As to B2, the koff was determined as 0.34 s⁻¹ in experiment [3] and 0.33 s⁻¹ in [4]. Also, the kon in experiment [3] is 140000 M⁻¹ s⁻¹; in experiment [4] it was 122000 M⁻¹ s⁻¹. The Kd in [4] amounted to 2710 nM; in experiment [7], 2450 nM; in [8] it was 1320 nM; in experiment [9], 1990 nM; in experiment [10], 2170 nM. Also, the fold improvement of KD relative to hIgG1 in experiment [5] is more than 10 fold. In experiment [6], this molecule yielded a fold reduction of affinity relative to hFcγRIIIA of 4 fold. The molecule further displayed a difference of kinetic KD between hIgG1 and rIgG in experiment [7] of 10%.

B3: pig FcγRIIIA extracellular domain fragment (receptor)
chain: T1 chain
Consider B3, for which the dissociation rate constant (koff) in [11] was determined as 0.28 s⁻¹; in experiment [12] it was 0.08 s⁻¹; in experiment [13] it was 0.35 s⁻¹; in experiment [14], 0.05 s⁻¹. In addition, the kon was found to be 59700 M⁻¹ s⁻¹ in experiment [11], 7110 M⁻¹ s⁻¹ in experiment [12], 480000 M⁻¹ s⁻¹ in [13] and 5920 M⁻¹ s⁻¹ in [14]. Moreover, the Kd stood at 10900 nM in experiment [12]; 726 nM in experiment [13]; 8060 nM in [14]; 4730 nM in experiment [16]; 3970 nM in [19]; 13200 nM in experiment [20]. Also, the Kd in experiment [21] came to 14700 nM; in experiment [22] it was 638 nM. The molecule further registered a difference of kinetic KD between hIgG1 and rIgG in experiment [15] of 30%. Besides, in [17], the fold deterioration of kd relative to hIgG1 came out at 7 fold. The fold improvement of KD relative to hIgG1 in [17] is more than 10 fold. Besides, the fold reduction of affinity relative to hFcγRIIIA in experiment [18] is 13 fold.
